From publication PMC10899793, “Toxin release by conditional remodelling of ParDE1 from Mycobacterium tuberculosis leads to gyrase inhibition” (Nucleic Acids Research, 2023) come the findings set out here.

For data set [1], the target named is Mycobacterium tuberculosis DNA gyrase holoenzyme GyrB2A2 (Mycobacterium tuberculosis) (UniProt P9WG47).
Data set [2] concerns the target T1, ParE1 toxin of Mycobacterium tuberculosis H37Rv (Mycobacterium tuberculosis H37Rv, UniProt P9WHG7 1-98).
T1 construct: also called Rv1959c; not shown: 6His-SUMO, N-terminal, cleaved
T1 sequence: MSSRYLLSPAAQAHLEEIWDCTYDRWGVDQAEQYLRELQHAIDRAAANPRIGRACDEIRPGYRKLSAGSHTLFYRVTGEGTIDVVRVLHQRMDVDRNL
As to the kind of experiment: SEC. Particulars: both partners purified.

The data set “crystal structure” deals with the molecule itself. The data set can be described thus: crystal structure.
Data set [3] addresses T1, ParE1 toxin of Mycobacterium …. The data set can be described thus: mass photometry. The conditions noted are these: both partners purified.

Sequence of Mycobacterium tuberculosis DNA gyrase holoenzyme GyrB2A2 (Mycobacterium tuberculosis) (P9WG47 whole entry, chain 1 of 2): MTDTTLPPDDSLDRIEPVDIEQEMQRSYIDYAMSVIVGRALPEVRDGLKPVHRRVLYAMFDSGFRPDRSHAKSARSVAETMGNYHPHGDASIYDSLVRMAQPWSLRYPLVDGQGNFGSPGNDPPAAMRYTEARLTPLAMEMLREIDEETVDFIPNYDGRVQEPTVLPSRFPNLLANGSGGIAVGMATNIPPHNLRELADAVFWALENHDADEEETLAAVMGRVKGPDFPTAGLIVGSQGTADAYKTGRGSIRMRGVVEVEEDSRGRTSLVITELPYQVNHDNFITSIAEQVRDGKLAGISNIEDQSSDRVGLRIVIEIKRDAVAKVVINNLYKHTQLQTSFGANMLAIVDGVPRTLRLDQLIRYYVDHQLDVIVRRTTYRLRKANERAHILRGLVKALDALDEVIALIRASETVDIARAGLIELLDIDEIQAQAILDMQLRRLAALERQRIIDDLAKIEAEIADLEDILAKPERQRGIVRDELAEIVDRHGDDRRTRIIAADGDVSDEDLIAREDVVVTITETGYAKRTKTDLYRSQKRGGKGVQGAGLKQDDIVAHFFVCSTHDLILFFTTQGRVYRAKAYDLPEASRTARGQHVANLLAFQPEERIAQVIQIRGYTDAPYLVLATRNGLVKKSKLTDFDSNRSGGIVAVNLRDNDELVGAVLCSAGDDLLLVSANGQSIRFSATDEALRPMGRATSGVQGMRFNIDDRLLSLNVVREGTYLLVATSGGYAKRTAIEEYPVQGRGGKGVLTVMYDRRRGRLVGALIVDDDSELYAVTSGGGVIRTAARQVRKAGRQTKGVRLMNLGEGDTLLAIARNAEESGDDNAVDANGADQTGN
Sequence of Mycobacterium tuberculosis DNA gyrase holoenzyme GyrB2A2 (Mycobacterium tuberculosis) (P9WG45 whole entry, chain 2 of 2, further chain): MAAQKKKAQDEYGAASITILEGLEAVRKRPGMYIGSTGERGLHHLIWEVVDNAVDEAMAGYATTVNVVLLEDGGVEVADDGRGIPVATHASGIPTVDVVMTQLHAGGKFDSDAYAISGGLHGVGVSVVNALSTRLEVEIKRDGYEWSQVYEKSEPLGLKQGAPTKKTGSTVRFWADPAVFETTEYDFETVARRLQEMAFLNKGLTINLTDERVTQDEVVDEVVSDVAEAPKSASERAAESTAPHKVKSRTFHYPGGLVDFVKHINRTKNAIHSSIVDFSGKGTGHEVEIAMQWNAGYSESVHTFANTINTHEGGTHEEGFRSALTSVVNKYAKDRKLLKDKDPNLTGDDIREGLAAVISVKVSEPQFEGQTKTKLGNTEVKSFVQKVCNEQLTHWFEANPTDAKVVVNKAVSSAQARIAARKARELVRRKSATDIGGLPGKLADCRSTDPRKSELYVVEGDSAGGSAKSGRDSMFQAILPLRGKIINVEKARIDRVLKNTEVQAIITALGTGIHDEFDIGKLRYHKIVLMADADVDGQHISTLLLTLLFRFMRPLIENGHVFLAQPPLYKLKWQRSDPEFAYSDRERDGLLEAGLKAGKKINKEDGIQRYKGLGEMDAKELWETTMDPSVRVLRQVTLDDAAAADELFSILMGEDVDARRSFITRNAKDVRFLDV

B1: ParE2 toxin of Mycobacterium tuberculosis H37Rv (natural protein)
chain: MTRRLRVHNGVEDDLFEAFSYYADAAPDQIDRLYNLFVDAVTKRIPQAPNAFAPLFKHYRHIYLRPFRYYVAYRTTDEAIDILAVRHGMENPNAVEAEISGRTFE
B1 displayed a linearisation of supercoiled pSG483 in the M. tuberculosis gyrase DNA relaxation (cleavage) assay; ParE2 titrated against constant GyrB2A2 (31.25 nM); value at the highest concentration tested (% of substrate pSG483 linearised) in data set [1] of 50.

B2: ParD1 antitoxin of Mycobacterium tuberculosis H37Rv (natural protein)
chain: MGKNTSFVLDEHYSAFIDGEIAAGRYRSASEVIRSALRLLEDRETQLRALREALEAGERSGSSTPFDFDGFLGRKRADASRGR
notes: Antitoxin ParD1, gene parD1 (rv1960c), M. tuberculosis H37Rv; printed mass 9.21 kDa; residues are numbered up to R83; also called primary ParD1; auxiliary ParD1
In the case of B2, the “stoichiometry N” value in data set [2] was 2 ParD1 per ParE1 (4:2 heterohexamer); in the data set “crystal structure”, 4; in data set [3], 1 ParD1 per ParE1 (2:2 heterotetramer).

By stoichiometry N is commonly meant a count of units in the complex or per binding partner.
